From patent publication US20170363643A1

Key:
[1] = target: endogenous SMN protein in human CSF (human) (UniProt Q16637); assay: Erenna sandwich assay, capture MABE230; human CSF sample 1, unspiked (endogenous SMN only)
[2] = target: His-tagged recombinant human SMN protein (ProteinTech, catalog # ag14333) (human) (UniProt Q16637); assay: Erenna sandwich assay, capture MABE230; SMN 2 pg/mL, MPs 5 µg/well, Det Ab 1000 ng/mL, Cap Ab/MP 25 µg/mg
[3] = target: His-tagged recombinant human SMN protein (ProteinTech, catalog # ag14333) (human) (UniProt Q16637); assay: Erenna sandwich assay, capture MABE230; human CSF sample 5 spiked with recombinant SMN 5.0 pg/mL (endogenous SMN also present)
[4] = target: His-tagged recombinant human SMN protein (ProteinTech, catalog # ag14333) (human) (UniProt Q16637); assay: Erenna sandwich assay, capture MABE230; human CSF sample 1 spiked with recombinant SMN 5.0 pg/mL (endogenous SMN also present)
[5] = target: His-tagged recombinant human SMN protein (ProteinTech, catalog # ag14333) (human) (UniProt Q16637); assay: Erenna sandwich assay, capture MABE230; human CSF sample 4 spiked with recombinant SMN 5.0 pg/mL (endogenous SMN also present)
[6] = target: His-tagged recombinant human SMN protein (ProteinTech, catalog # ag14333) (human) (UniProt Q16637); assay: Erenna sandwich assay, capture MABE230 12.5 µg/mg MPs; Det Ab 500 ng/mL; SMN 3.70 pg/mL
[7] = target: His-tagged recombinant human SMN protein (ProteinTech, catalog # ag14333) (human) (UniProt Q16637); assay: Erenna sandwich assay, capture MABE230; SMN 2 pg/mL, MPs 10 µg/well, Det Ab 50 ng/mL, Cap Ab/MP 25 µg/mg
[8] = target: His-tagged recombinant human SMN protein (ProteinTech, catalog # ag14333) (human) (UniProt Q16637); assay: Erenna sandwich assay, capture MABE230 12.5 µg/mg MPs; Det Ab 500 ng/mL; SMN 0.12 pg/mL
[9] = target: His-tagged recombinant human SMN protein (ProteinTech, catalog # ag14333) (human) (UniProt Q16637); assay: Erenna sandwich assay, capture MABE230 12.5 µg/mg MPs; Det Ab 500 ng/mL; SMN 1.85 pg/mL
[10] = target: His-tagged recombinant human SMN protein (ProteinTech, catalog # ag14333) (human) (UniProt Q16637); assay: Erenna sandwich assay, capture MABE230 12.5 µg/mg MPs; Det Ab 500 ng/mL; SMN 0.06 pg/mL
[11] = target: His-tagged recombinant human SMN protein (ProteinTech, catalog # ag14333) (human) (UniProt Q16637); assay: Erenna sandwich assay, capture MABE230 12.5 µg/mg MPs; Det Ab 1000 ng/mL; SMN 0.46 pg/mL
[12] = target: His-tagged recombinant human SMN protein (ProteinTech, catalog # ag14333) (human) (UniProt Q16637); assay: Erenna sandwich assay, capture MABE230; SMN 2 pg/mL, MPs 5 µg/well, Det Ab 100 ng/mL, Cap Ab/MP 25 µg/mg
[13] = target: His-tagged recombinant human SMN protein (ProteinTech, catalog # ag14333) (human) (UniProt Q16637); assay: Erenna sandwich assay, capture MABE230 12.5 µg/mg MPs; Det Ab 1000 ng/mL; SMN 0.23 pg/mL
[14] = target: His-tagged recombinant human SMN protein (ProteinTech, catalog # ag14333) (human) (UniProt Q16637); assay: Erenna sandwich assay, capture MABE230 12.5 µg/mg MPs; Det Ab 1000 ng/mL; SMN 200.00 pg/mL
[15] = target: His-tagged recombinant human SMN protein (ProteinTech, catalog # ag14333) (human) (UniProt Q16637); assay: BLI (BLItz), His-tagged SMN immobilised on the biosensor tip, antibody in solution
[16] = target: His-tagged recombinant human SMN protein (ProteinTech, catalog # ag14333) (human) (UniProt Q16637); assay: Erenna sandwich assay, capture MABE230 12.5 µg/mg MPs; Det Ab 1000 ng/mL; SMN 3.70 pg/mL
[17] = target: His-tagged recombinant human SMN protein (ProteinTech, catalog # ag14333) (human) (UniProt Q16637); assay: Erenna sandwich assay, capture MABE230 12.5 µg/mg MPs; Det Ab 1000 ng/mL; SMN 1.85 pg/mL
[18] = target: His-tagged recombinant human SMN protein (ProteinTech, catalog # ag14333) (human) (UniProt Q16637); assay: Erenna sandwich assay, capture MABE230 12.5 µg/mg MPs; Det Ab 500 ng/mL; SMN 22.22 pg/mL
[19] = target: His-tagged recombinant human SMN protein (ProteinTech, catalog # ag14333) (human) (UniProt Q16637); assay: Erenna sandwich assay, capture MABE230 12.5 µg/mg MPs; Det Ab 1000 ng/mL; SMN 0.06 pg/mL
[20] = target: His-tagged recombinant human SMN protein (ProteinTech, catalog # ag14333) (human) (UniProt Q16637); assay: Erenna sandwich assay, capture MABE230; SMN 2 pg/mL, MPs 10 µg/well, Det Ab 50 ng/mL, Cap Ab/MP 12.5 µg/mg
[21] = target: His-tagged recombinant human SMN protein (ProteinTech, catalog # ag14333) (human) (UniProt Q16637); assay: Erenna sandwich assay, capture MABE230; human CSF sample 2 spiked with recombinant SMN 10.0 pg/mL (endogenous SMN also present)
[22] = target: endogenous SMN protein in human CSF (human) (UniProt Q16637); assay: Erenna sandwich assay, capture MABE230; human CSF sample 2, unspiked (endogenous SMN only)

Work on “ProteinTech anti-SMN2 (catalog #60154-1-Ig) (antibody)” yielded a detected events (DE) (detected events) [1] of 330, a detected events (DE) (detected events) [2] of 2180 and a detected events (DE) (detected events) [3] of 6070. For the same substance, the detected events (DE) (detected events) [4] was 5070, the detected events (DE) (detected events) [5] was 5810 and the detected events (DE) (detected events) [6] was 3190. The event photons (EP) (event photons) [6] was 497000, the detected events (DE) (detected events) [7] was 776 and the detected events (DE) (detected events) [8] was 154. For the same substance, the event photons (EP) (event photons) [8] was 19500, the detected events (DE) (detected events) [9] was 1850 and the event photons (EP) (event photons) [9] was 267000. For the same substance, the detected events (DE) (detected events) [10] was 91, the event photons (EP) (event photons) [10] was 14200 and the detected events (DE) (detected events) [11] was 630. For the same substance, the event photons (EP) (event photons) [11] was 87400, the detected events (DE) (detected events) [12] was 817 and the detected events (DE) (detected events) [13] was 330. The event photons (EP) (event photons) [13] was 44800, the detected events (DE) (detected events) [14] was 9360 and the event photons (EP) (event photons) [14] was 2.04e+07. It also gave a Kd [15] of less than 1 pM, a koff [15] of less than 1e-07 s⁻¹ and a kon [15] of 118000 M⁻¹ s⁻¹. For the same substance, the detected events (DE) (detected events) [16] was 4330, the event photons (EP) (event photons) [16] was 706000 and the detected events (DE) (detected events) [17] was 2140. For the same substance, the event photons (EP) (event photons) [17] was 312000, the detected events (DE) (detected events) [18] was 12200 and the event photons (EP) (event photons) [18] was 3.85e+06. The detected events (DE) (detected events) [19] was 125, the event photons (EP) (event photons) [19] was 15900 and the detected events (DE) (detected events) [20] was 681. For the same substance, the detected events (DE) (detected events) [21] was 9630 and the detected events (DE) (detected events) [22] was 240.
